Ends that are not written are not given here. * marks the point of attachment. Biotin = O=C1N[C@H]2[C@H](CS[C@H]2CCCCC(=O)*)N1
What was measured:
Test in all cases: A/G assays
[1] = target: T1, GST-TAX-IP43 PDZ domain fusion protein (human, UniProt Q13884 109-180)
T1 construct: also called TAX43; not shown: glutathione S-transferase encoded by vector pGEX-3X (Pharmacia)
T1 sequence: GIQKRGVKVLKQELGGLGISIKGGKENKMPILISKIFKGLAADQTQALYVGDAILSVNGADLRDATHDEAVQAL

[2] = target: T2, GST-TAX-IP2 PDZ domain fusion protein (human, UniProt O14908 129-216)
T2 construct: also called TAX-1P2; TAX2; not shown: glutathione S-transferase encoded by vector pGEX-3X (Pharmacia)
T2 chain: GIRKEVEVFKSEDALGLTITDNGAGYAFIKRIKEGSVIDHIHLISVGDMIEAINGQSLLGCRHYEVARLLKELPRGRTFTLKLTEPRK

[3] = target: T3, GST-PTN-4 PDZ domain fusion protein (Homo sapiens (Human), UniProt P29074 517-605)
T3 construct: also called protein-tyrosine phosphatase meg1; not shown: glutathione S-transferase encoded by vector pGEX-3X (Pharmacia)
T3 sequence: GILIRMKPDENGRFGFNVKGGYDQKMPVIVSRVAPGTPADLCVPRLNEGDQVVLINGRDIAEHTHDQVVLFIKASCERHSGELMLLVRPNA

[4] = target: T4, GST-MPP1 PDZ domain fusion protein (Homo sapiens (Human), UniProt Q00013 67-152)
T4 construct: also called p55; 55 Kd erythrocyte membrane protein; not shown: glutathione S-transferase encoded by vector pGEX-3X (Pharmacia)
T4 sequence: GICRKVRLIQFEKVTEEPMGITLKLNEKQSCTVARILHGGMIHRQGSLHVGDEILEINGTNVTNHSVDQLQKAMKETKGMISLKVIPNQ

[5] = target: T5, GST-AF6 PDZ domain fusion protein (Homo sapiens (Human), UniProt P55196 1001-1093)
T5 construct: also called af-6 protein; not shown: glutathione S-transferase encoded by vector pGEX-3X (Pharmacia)
T5 sequence: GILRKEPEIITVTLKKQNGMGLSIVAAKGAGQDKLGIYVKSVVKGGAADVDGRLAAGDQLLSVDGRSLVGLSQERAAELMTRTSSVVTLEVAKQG

[6] = target: T6, GST-RGS12 PDZ domain fusion protein (human, UniProt O14924 17-85)
T6 construct: also called human regulator of G-protein signalling 12; not shown: glutathione S-transferase encoded by vector pGEX-3X (Pharmacia)
T6 sequence: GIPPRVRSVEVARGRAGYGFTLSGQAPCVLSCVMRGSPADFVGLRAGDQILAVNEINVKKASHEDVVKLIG

[7] = target: T7, GST-TIAM1 PDZ domain fusion protein (Homo sapiens (Human), UniProt Q13009 845-931)
T7 construct: also called TLAM1; T-lymphoma invasion and metastasis inducing protein 1; not shown: glutathione S-transferase encoded by vector pGEX-3X (Pharmacia)
T7 sequence (Q13009 other isoform, or with tags, fused parts or gaps): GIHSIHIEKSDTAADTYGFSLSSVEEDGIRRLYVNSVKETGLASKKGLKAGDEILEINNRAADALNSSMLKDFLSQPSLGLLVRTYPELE

[8] = target: T8, GST-DVL1 PDZ domain fusion protein (human, UniProt O14640 247-339)
T8 construct: also called human dishevelled segment polarity protein homolog; not shown: glutathione S-transferase encoded by vector pGEX-3X (Pharmacia)
T8 sequence: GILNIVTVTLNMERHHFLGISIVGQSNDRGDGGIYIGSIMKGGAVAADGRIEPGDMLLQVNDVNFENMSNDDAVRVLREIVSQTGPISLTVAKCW

[9] = target: T9, GST-KIAA0303 PDZ domain fusion protein (Homo sapiens (Human), UniProt O15021 1138-1228)
T9 construct: also called K303; not shown: glutathione S-transferase encoded by vector pGEX-3X (Pharmacia)
T9 sequence: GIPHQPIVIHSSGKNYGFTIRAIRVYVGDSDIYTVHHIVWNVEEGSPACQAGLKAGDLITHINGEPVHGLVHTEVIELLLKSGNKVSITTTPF

[10] = target: T10, KIAA0807 (PDZ domain)-GST fusion protein (human, UniProt Q6P0Q8 1104-1192)
T10 construct: also called K807; KIAA807; not shown: glutathione S-transferase encoded by vector pGEX-3X (Pharmacia)
T10 sequence: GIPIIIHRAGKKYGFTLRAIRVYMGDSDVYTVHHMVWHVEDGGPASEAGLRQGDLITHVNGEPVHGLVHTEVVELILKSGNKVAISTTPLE

[11] = target: T11, X11β PDZ-GST fusion protein (Rattus norvegicus (Rat), UniProt O35431 560-745)
T11 construct: Order of GST and PDZ part and limits not seen in the excerpts
T11 chain: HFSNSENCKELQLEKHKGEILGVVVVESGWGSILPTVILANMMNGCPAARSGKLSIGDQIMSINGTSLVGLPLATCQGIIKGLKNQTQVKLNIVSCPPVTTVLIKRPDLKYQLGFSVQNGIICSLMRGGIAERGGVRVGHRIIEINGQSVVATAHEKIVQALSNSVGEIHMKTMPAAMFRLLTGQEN

[12] = target: T12, TAX-IP2L PDZ-GST fusion protein (Homo sapiens (Human), UniProt Q8TF64 107-197)
T12 construct: Order of GST and PDZ part and limits not seen in the excerpts
T12 sequence: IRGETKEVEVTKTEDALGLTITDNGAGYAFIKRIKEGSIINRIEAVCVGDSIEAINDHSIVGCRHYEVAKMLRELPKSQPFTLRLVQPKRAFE

[13] = target: T13, TAX-IP33 PDZ-GST fusion protein (Homo sapiens (Human), UniProt O14910 103-193)
T13 construct: Order of GST and PDZ part and limits not seen in the excerpts
T13 sequence: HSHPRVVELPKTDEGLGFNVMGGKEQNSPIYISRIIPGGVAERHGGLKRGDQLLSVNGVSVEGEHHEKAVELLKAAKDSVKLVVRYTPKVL

[14] = target: T14, K316 PDZ-GST fusion protein (Homo sapiens (Human), UniProt Q14CM0 72-159)
T14 construct: Order of GST and PDZ part and limits not seen in the excerpts
T14 sequence (Q14CM0 72-159 limits assumed): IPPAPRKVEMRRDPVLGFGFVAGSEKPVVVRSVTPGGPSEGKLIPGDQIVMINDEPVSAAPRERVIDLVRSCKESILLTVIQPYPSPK

[15] = target: T15, SP short PDZ-GST fusion protein (Homo sapiens (Human), UniProt O43464 350-435)
T15 construct: The label SP short is not explained in the excerpts
T15 sequence: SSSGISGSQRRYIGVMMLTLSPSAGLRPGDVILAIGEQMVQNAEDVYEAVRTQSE

[16] = target: T16, GEF PDZ-GST fusion protein (Homo sapiens (Human), UniProt Q8TEU7 293-400)
T16 construct: The label GEF is not explained in the excerpts
T16 sequence: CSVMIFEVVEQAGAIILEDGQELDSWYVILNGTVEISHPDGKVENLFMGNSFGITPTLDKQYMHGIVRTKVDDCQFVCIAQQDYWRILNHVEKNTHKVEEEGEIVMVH

Measured: binding result

Biotin-TSGTGHNQTRALRASESGI (also called CD97 (CD55L)) [CD97 C-terminal peptide AA14L, biotinylated]
no binding: all assays above

Biotin-HKAEIHAQPSDKERLTSDA (also called CD49F (Aform, alpha6)) [CD49F C-terminal peptide AA12L, biotinylated]
no binding: all assays above

Biotin-SPQPDSTDNDDYDDISAA [CD6 C-terminal peptide AA6L, biotinylated]
no binding: all assays above

Biotin-ISGTPTSTMVHGMTSSSSVV [Clasp-2 C-terminal peptide AA2L, biotinylated]
no binding: all assays above
